Bridges are numbered along the chain shown (N, C = ends). Where no end group is shown, it is not given here.
Molecular target: T1, low-density lipoprotein receptor-related protein 6 (LRP6) (UniProt O75581 20-1370, limits assumed)
T1 construct: also called LRP6 receptor
T1 sequence (looked up): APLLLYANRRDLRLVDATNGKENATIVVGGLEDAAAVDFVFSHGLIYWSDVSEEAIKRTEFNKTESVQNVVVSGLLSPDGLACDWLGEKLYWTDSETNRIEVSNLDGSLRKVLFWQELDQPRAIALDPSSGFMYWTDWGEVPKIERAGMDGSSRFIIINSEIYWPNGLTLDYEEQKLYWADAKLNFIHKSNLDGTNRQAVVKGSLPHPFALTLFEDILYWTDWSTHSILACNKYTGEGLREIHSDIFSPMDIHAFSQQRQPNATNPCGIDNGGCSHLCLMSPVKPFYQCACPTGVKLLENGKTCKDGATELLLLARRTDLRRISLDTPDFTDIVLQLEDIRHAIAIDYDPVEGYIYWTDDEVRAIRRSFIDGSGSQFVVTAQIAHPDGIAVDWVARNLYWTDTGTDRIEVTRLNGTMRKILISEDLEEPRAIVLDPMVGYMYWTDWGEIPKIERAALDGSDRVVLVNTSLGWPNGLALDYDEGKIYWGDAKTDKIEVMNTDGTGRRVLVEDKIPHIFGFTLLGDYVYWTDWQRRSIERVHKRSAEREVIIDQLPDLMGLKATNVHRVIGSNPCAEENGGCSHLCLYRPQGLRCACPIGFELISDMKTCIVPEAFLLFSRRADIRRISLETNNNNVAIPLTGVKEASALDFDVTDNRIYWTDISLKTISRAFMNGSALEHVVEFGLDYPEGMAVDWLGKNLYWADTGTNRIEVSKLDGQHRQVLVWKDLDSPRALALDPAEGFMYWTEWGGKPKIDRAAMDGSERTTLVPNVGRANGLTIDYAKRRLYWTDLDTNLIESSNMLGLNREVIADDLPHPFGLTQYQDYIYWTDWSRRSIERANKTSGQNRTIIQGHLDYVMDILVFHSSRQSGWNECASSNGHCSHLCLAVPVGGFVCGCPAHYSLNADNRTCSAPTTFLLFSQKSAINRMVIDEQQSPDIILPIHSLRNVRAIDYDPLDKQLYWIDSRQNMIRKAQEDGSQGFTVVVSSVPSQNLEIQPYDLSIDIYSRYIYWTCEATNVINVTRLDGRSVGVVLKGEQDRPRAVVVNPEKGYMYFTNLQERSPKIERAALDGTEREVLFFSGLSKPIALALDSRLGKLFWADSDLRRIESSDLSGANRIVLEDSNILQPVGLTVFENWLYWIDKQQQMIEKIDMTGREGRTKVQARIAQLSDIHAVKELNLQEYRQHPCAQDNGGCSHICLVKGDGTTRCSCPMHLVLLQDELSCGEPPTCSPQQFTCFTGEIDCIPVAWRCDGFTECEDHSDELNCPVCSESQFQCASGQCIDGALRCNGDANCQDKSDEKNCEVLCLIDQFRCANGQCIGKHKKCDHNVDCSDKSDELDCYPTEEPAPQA
Assay: LSPR spectroscopy; peptide on nanoparticles as ligand, LRP6 as analyte at 10^-9 to 10^-6 M; sigmoid fit of plasmon shift
Procedure: In this example, the binding affinity of exemplary peptides to the LRP6 receptor was determined by performing localized surface plasmon resonance (LSPR) spectroscopy. In the LSPR spectroscopy, the response of free electrons to nanoparticles in the presence of biomolecules may be observed as changes in wavelength and intensity of absorption. A stabilized compound on the nanoparticles' surface is called a ligand, and a second free compound is called an analyte. […] Also, the LRP6 was used as the analyte because of its negative surface charge. By adding the LRP6 as the analyte in the concentration ranges of 10⁻⁹ M to 10⁻⁶ M, the wavelength changes (plasmon shift) were recorded for each concentration. In the end, the KD values of exemplary peptides were determined by calculating the sigmoid curve of wavelength changes in terms of LRP6 concentration.

B1: pep-2 (SEQ ID NO: 2) (peptide)
peptide: QVCTKHRRKGSHGLEIFQRCY
notes: Held on nanoparticles as the ligand in the LSPR assay
Kd: ~470 nM

B2: pep-4 (SEQ ID NO: 4) (peptide)
peptide: CCARHFWSKIC
modifications: disulfide 1-11
notes: Made by synthesis; Held on nanoparticles as the ligand in the LSPR assay
Kd: ~550 nM
